In data set [1] the target is OsSWEET2b, crystallisation construct (C-terminal 15 residues removed, reductively methylated) (Oryza sativa). In words: crystal structure.
The data set “cross-linking” deals with the molecule itself. Kind of data set: cross-linking.

Take “OsSWEET2b, crystallisation construct (C-terminal 15 residues removed, reductively methylated) (natural protein)”: the stoichiometry N – broadly, a count of units in the complex or per binding partner – in data set [1] worked out at 3.

B1: OsSWEET2b, purified in DDM for glutaraldehyde cross-linking (natural protein)
chain: MDSLYDISCFAAGLAGNIFALALFLSPVTTFKRILKAKSTERFDGLPYLFSLLNCLICLWYGLPWVADGRLLVATVNGIGAVFQLAYICLFIFYADSRKTRMKIIGLLVLVVCGFALVSHASVFFFDQPLRQQFVGAVSMASLISMFASPLAVMGVVIRSESVEFMPFYLSLSTFLMSASFALYGLLLRDFFIYFPNGLGLILGAMQLALYAYYSSNSLEVLFQ
As for B1, in the data set “cross-linking”, the “stoichiometry N” value turned out to be 3.
